In experiment [1] the target is T1, EAiC3b (erythrocytes coated with iC3b) (Homo sapiens, UniProt P01024).
T1 construct: EAiC3b (erythrocytes coated with iC3b) were generated by treating EAC3b with purified human factors H and I; tissue Sigma Chemical Co. (C5-deficient human serum); host or cells: human serum C3 deposited on IgM-coated erythrocytes
Description: Erythrocyte binding assay, EAiC3b on immobilized proteins or peptides. The note with it: 37° C., divalent cations. The method, then:
Erythrocytes (E) coated with rabbit anti-E IgM (EA) or C3b (EAC3b) were prepared as described by Dana et al. (J. Immunol. 73:153, 1984). EAiC3b (erythrocytes coated with iC3b) were generated by treating EAC3b with purified human factors H and I, or alternatively prepared from EA using C5-deficient human serum (Sigma Chemical Co., St. Louis, Mo.). EAiC3b cells were washed and stored in isotonic veronal-buffered saline (VBS^2+), pH 7.4, containing 0.15 mM calcium-1 mM magnesium (MgCl2+CaCl2) and 1 mg/ml Soybean Trypsin Inhibitor (STI; Worthington Biochemical Co., Freehold, N.J.) at 1.5×10^8 cells/ml. EA, EAC3b or EAiC3b were labeled with 5-(and-6)-carboxy fluorescein (Molecular Probes, Eugene, Oreg.) as described by Michishita et al. (Cell 72:857, 1993).
Immobilization of recombinant proteins and peptides: Purified recombinant A-domain was added to Immulon-2 96-well microtiter plates (Dynatech) overnight. Wells were then washed once with phosphate-buffered-saline, pH 7.4 without metals, and blocked with 1% BSA at room temperature (RT) for one hour, followed by two washings with buffer A (composed of 60% GVBS:VBS^2+ mixed in a 1:3 ratio; Arnaout et al., in Complement Receptor Type 3 at 602-615, Academic Press, FL) containing 1 mM MnCl2 or MgCl2+CaCl2. All the peptides were stocked at 1 mg/ml in water and similarly adsorbed to Immulon-2 96-well plates. Binding of the anti-CD11b mabs to the coated rA-domain was measured by ELISA and read using a plate reader (Molecular Dynamics).
Erythrocyte binding assays: Fluoresceinated EAiC3b, EAC3b or EA were resuspended to 1.5×10^8/ml in buffer A, and added […] to wells containing immobilized proteins or peptides in a total volume of […]. The plates were then briefly centrifuged to settle the erythrocytes, and allowed to incubate at 37° C. for 15 minutes in a humidified incubator with 5% CO2. For the inhibition studies, E were preincubated with each recombinant protein or pure peptide in the presence of 2% BSA for 5 minutes at RT and added to wells coated with immobilized protein or peptide without washing, unless otherwise indicated. At the end of the binding reactions, wells were washed, examined briefly by light microscopy then solubilized with 1% SDS-0.2 N NaOH. Fluorescence was quantified (excitatory wavelength, 490 nm, emission wavelength, 510 nm) using a SLM 8000 fluorometer (SLM Instruments, Urbana, Ill.). In experiments where the effects of individual divalent cations were measured, Ca^2+ and Mg^2+ were replaced with metal-free buffers or with buffers containing each cation at […], unless otherwise indicated. The effect of temperature was evaluated in the presence of 1 mM MnCl2 at 37° C. and at 4° C.

Experiment [2] relates to biotinylated NIF binding to human neutrophils. Description: Inhibition of biotinylated NIF binding to neutrophils. The note with it: dose dependent. The method, then:
100 μg of rNIF were labeled with sulfo-NHS-Biotin as described above. rNIF binding to resting or stimulated human neutrophils (pretreated with 10^−6 M f-met-leu-phe, for 15 minutes at 37° C., then washed) was measured. Increasing amounts of biotinylated rNIF in the absence or presence of 100-fold molar excess of unlabeled rNIF were incubated on ice for one hour with 1×10^6 neutrophils in VBSG^++ in a total volume of […]. Cells were then washed and incubated with phycoerythrin-coupled avidin (Sigma Chemical Co.) under similar conditions, washed again, fixed in 1% paraformaldehyde in PBS, and analyzed using FACScan (Becton Dickinson Co., Mountain View, Calif.). Mean channel fluorescence for each sample was then expressed as a function of the amount of biotinylated rNIF used. Background binding of phycoerythrin-streptavidin alone to neutrophils was subtracted (2.8 fluorescent units). Specific binding was obtained by […], and the values plotted according to Scatchard (Ann. N.Y. Acad. Sci. 51:660, 1949). To determine the effect of unlabeled fluid-phase-r11bA or GST on rNIF binding to neutrophils, each was preincubated at varying concentrations with biotinylated rNIF (20 ng/ml, final concentration) for 15 minutes on ice before addition of the mixture to neutrophils. The effect of mAbs on biotinylated NIF binding to neutrophils was assessed by preincubating the neutrophils with 100 μg/ml of each mAb at 4° C. for 15 minutes before addition of biotinylated NIF (20 ng/ml). The incubation then continued for one hour, followed by processing of cells for FACS analysis as described below.

T1 sequence (P01024 749-1303 limits assumed): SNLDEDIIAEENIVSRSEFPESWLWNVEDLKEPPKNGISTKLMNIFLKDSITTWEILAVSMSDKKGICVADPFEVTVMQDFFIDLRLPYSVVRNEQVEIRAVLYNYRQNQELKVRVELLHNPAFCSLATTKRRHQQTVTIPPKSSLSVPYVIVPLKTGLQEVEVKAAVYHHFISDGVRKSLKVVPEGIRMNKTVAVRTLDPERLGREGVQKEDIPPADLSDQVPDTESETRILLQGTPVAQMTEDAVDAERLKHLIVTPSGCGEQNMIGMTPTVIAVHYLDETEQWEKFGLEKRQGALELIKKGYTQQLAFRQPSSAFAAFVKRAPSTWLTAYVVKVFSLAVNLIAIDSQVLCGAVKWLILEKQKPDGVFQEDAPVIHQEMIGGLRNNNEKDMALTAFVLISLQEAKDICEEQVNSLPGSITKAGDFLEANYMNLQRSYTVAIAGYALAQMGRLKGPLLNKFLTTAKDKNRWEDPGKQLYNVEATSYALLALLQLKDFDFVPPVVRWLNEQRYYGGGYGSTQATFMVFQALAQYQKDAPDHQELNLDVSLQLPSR
T1 sequence (P01024 23-667 partner limits assumed): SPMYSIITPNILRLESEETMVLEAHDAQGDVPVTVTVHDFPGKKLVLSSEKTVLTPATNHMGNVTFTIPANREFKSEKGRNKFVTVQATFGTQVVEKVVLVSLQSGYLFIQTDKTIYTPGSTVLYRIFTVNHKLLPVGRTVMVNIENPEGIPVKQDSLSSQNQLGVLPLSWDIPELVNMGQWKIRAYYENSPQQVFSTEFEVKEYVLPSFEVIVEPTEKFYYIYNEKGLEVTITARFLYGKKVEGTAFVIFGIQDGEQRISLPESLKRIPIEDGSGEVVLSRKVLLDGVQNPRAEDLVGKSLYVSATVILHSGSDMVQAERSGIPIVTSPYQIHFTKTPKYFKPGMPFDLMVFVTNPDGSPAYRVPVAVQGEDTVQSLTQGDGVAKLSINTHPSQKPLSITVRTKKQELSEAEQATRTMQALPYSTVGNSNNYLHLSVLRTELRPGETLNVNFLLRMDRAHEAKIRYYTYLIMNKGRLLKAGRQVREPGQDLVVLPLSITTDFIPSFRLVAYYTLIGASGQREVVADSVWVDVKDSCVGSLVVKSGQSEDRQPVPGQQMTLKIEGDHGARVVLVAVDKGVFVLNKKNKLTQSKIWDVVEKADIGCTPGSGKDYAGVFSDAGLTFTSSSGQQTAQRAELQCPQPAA
T1 sequence (P01024 1321-1663 partner limits assumed): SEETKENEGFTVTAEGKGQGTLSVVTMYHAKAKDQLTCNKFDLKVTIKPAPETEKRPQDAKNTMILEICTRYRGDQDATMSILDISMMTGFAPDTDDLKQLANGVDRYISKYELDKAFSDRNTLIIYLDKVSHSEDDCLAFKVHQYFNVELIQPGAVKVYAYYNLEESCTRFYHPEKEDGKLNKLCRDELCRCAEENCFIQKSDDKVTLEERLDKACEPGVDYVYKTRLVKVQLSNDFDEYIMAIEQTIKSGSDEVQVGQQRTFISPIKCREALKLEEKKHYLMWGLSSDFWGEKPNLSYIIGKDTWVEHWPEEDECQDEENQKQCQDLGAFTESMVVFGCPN

On to “GST: glutathione-S-transferase, fusion partner of r11bA, used as control [reference compound]”, for which, in experiment [1], the “direct binding of EAiC3b to immobilized protein or peptide” value is given as “did not bind”. Further, in experiment [2], the “effect of fluid-phase protein on biotinylated rNIF binding to human neutrophils” value was “not”.
